Results as given in article PMC2953525, “Subtle Alterations in PCNA-Partner Interactions Severely Impair DNA Replication and Repair” (PLoS Biology, 2010).

What was measured:
[1] = molecular target: Ung1 PIP peptide; experiment: SPR analysis of PCNA binding to PIP peptide; design: species or system yeast; conditions: PCNA immobilized, peptide 5-5,000 nM, ProteOn XPR36; read-out: Binding affinity for Ung1 PIP peptide (SPR)
Excerpt: To quantify differences in binding affinities of the PCNA mutants relative to the WT, we characterized four PCNA mutants with increased affinity for PIP peptides derived from Rad30, Pol32, Msh6, and Ung1 partners using SPR. These mutants were overexpressed in E. coli, purified by affinity chromatography, and immobilized on an SPR sensor chip for binding characterization. SPR binding analysis enabled direct and sensitive measurement of interaction affinities relative to the Y2H system and indicated an up to 8-fold increase in binding affinity for the different PIP peptides, relative to WT PCNA (Table 1). Such analysis allowed the detection of a significant decrease in the Rad30 PIP peptide dissociation rate in the Pol30-Rad30E9p mutant relative to the WT, indicating a ∼9-fold increase in the lifetime of the PCNA-Rad30 complex (see Table 1). Collectively the ELISA, Y2H, and SPR assays validated and quantified the increase in mutant PCNA binding affinities, relative to WT PCNA.
Protein interaction assays were carried out using the ProteOn XPR36 (Bio-Rad) instrument. WT or PCNA mutants (0.4 to 5.2 fmol) were immobilized on the surface of a GLM sensor chip by a carbodiimide-activated succinimide-coupling method, as specified by the manufacturer. All SPR experiments were performed by flowing 150 µl of the target peptide at a flow rate of 30 µl/min onto the PCNA-bound chip. Different concentrations (5–5,000 nM) of PIP peptides (Table 1) were injected over the PCNA chip, and binding parameters were determined using ProteOn XPR36 software (Bio-Rad). The ligand (PCNA) and analyte (peptide) buffers were PBST and 150 mM NaCl, 1 mM EDTA, 0.01% Tween-80, 30 mM Hepes, pH 7.5, respectively.

[2] = molecular target: T1, pol30-Msh6E6 (yeast, UniProt P15873 1-258, IDCL DIDADFLKIEEL to DYDKDLLKIIEL); experiment: two-hybrid; pAD-GAL4-PCNA WT or mutant (called bait) and pBD-GAL4-partner (called prey) in strain YRG2; 10-fold serial dilutions spotted on SC-Leu-Trp-His plates, 30°C, 3 d; growth similar to WT PCNA is denoted 1; conditions: partners not purified
T1 construct: PCNA (POL30), yeast; source: yeast two-hybrid fusion (pAD-GAL4, strain YRG2)
T1 sequence: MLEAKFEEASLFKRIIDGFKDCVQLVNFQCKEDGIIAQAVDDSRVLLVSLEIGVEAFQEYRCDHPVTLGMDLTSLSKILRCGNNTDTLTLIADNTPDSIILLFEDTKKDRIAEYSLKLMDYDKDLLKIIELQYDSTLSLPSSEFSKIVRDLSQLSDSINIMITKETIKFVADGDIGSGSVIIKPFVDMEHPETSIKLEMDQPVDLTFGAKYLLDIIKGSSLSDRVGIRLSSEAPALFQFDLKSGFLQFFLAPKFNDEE

[3] = molecular target: T2, pol30-Msh6E2 (yeast, UniProt P15873 1-258, IDCL DIDADFLKIEEL to DYDRDMLKISEL); experiment: as above; conditions: partners not purified
T2 construct: PCNA (POL30), yeast; source: yeast two-hybrid fusion (pAD-GAL4, strain YRG2)
T2 sequence: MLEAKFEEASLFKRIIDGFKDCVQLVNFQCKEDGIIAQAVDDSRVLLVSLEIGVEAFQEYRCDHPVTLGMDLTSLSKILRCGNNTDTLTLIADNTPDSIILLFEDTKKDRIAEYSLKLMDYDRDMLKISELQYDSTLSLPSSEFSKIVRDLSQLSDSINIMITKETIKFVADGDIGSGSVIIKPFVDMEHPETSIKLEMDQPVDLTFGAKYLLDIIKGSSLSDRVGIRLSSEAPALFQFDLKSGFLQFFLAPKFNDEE

[4] = system: PCNA-Rad30 complex; experiment: ELISA for PCNA-partner complexes extracted from yeast cells; type: binding; conditions: ELISA of yeast extracts, GFP signal normalized to immobilized PCNA signal; averages of at least 5 independent repeats
Excerpt: (§1) To examine whether increased PCNA-partner interaction affinities result in increased PCNA-partner complex formation in vivo in pol30 mutant strains, we analyzed the levels of these complexes extracted from yeast cells. We used strains expressing the pol30 mutants as a sole source of PCNA in the cell under the control of the native POL30 promoter (see below). We immobilized PCNA from the crude yeast extracts onto ELISA plates and analyzed the amount of bound partner, relative to the amount of total PCNA immobilized on the plate (Figure 4).
(§2) Figure 4 Increased levels of in vivo PCNA-partner complex formation in the pol30-Rad30E2 or the pol30-Rad27E6 mutant strains, relative to the POL30 strain. (A). ELISA experimental set-up for the detection of PCNA-partner complexes extracted directly from WT and mutant PCNA strains. The assay is based on the immobilization of PCNA-partner complex using anti-PCNA antibody-coated ELISA plates. Detection of complex levels is performed using antibodies against the GFP fused to the C-terminal of the PCNA partner. […]
(§3) Yeast cell extracts were generated from 0.5 L of logarithmic cultures using conventional methods. […] Following centrifugation, cell extracts were collected and protein concentration was determined by the BCA method. […] PCNA-partner complex levels were calculated as the ratio of the GFP signal to the PCNA signal detected for the same cell extract. […]

[5] = system: PCNA-Rad27 complex; experiment: as above; type: binding; conditions: ELISA of yeast extracts, GFP signal normalized to immobilized PCNA signal; averages of at least 5 independent repeats
Excerpt: as §1, §2, §3

In the case of “POL30: wild-type yeast PCNA (POL30), IDCL sequence DIDADFLKIEEL”, the Kd [1] is reported as 1200 nM.

B1: Rad27 (natural protein, yeast, UniProt P26793 1-382, looked up)
chain: MGIKGLNAIISEHVPSAIRKSDIKSFFGRKVAIDASMSLYQFLIAVRQQDGGQLTNEAGETTSHLMGMFYRTLRMIDNGIKPCYVFDGKPPDLKSHELTKRSSRRVETEKKLAEATTELEKMKQERRLVKVSKEHNEEAQKLLGLMGIPYIIAPTEAEAQCAELAKKGKVYAAASEDMDTLCYRTPFLLRHLTFSEAKKEPIHEIDTELVLRGLDLTIEQFVDLCIMLGCDYCESIRGVGPVTALKLIKTHGSIEKIVEFIESGESNNTKWKIPEDWPYKQARMLFLDPEVIDGNEINLKWSPPKEKELIEYLCDDKKFSEERVKSGISRLKKGLKSGIQGRLDGFFQVVPKTKEQLAAAAKRAQENKKLNKNKNKVTKGRR
notes: Rad27 (endonuclease), yeast; also called pBD-Rad27; source: yeast two-hybrid fusion (pBD-GAL4, strain YRG2)
B1 was tested, and the “fold change in affinity relative to WT PCNA (Y2H)” value [2] was 1.3 fold and the “fold change in affinity relative to WT PCNA (Y2H)” value [3] was 1.3 fold.

B2: pol30-Rad30E2: PCNA mutant evolved for Rad30, IDCL sequence DDDWDFLKILEL (protein)
chain: MLEAKFEEASLFKRIIDGFKDCVQLVNFQCKEDGIIAQAVDDSRVLLVSLEIGVEAFQEYRCDHPVTLGMDLTSLSKILRCGNNTDTLTLIADNTPDSIILLFEDTKKDRIAEYSLKLMDDDWDFLKILELQYDSTLSLPSSEFSKIVRDLSQLSDSINIMITKETIKFVADGDIGSGSVIIKPFVDMEHPETSIKLEMDQPVDLTFGAKYLLDIIKGSSLSDRVGIRLSSEAPALFQFDLKSGFLQFFLAPKFNDEE
modifications: left off: Gal4 activation domain, end not stated, kept
In the case of B2, the “increase in PCNA-Rad30 complex formation relative to the POL30 WT strain” value [4] is reported as 70%.

B3: pol30-Rad27E6: PCNA mutant evolved for Rad27, IDCL sequence DGDYDILKIREL (protein)
chain: MLEAKFEEASLFKRIIDGFKDCVQLVNFQCKEDGIIAQAVDDSRVLLVSLEIGVEAFQEYRCDHPVTLGMDLTSLSKILRCGNNTDTLTLIADNTPDSIILLFEDTKKDRIAEYSLKLMDGDYDILKIRELQYDSTLSLPSSEFSKIVRDLSQLSDSINIMITKETIKFVADGDIGSGSVIIKPFVDMEHPETSIKLEMDQPVDLTFGAKYLLDIIKGSSLSDRVGIRLSSEAPALFQFDLKSGFLQFFLAPKFNDEE
modifications: left off: Gal4 activation domain, end not stated, kept
In the case of B3, the “increase in PCNA-Rad27 complex formation relative to the POL30 WT strain” value [5] is reported as 17%.
